Test results reported in article PMC8391708, “Anti-Inflammatory Effects of C1q/Tumor Necrosis Factor-Related Protein 3 (CTRP3) in Endothelial Cells” (Cells, 2021).

Molecular target: the molecule itself
Assay: SDS-PAGE; recombinant CTRP3 run on SDS-polyacrylamide gels, stained with Coomassie; band at <100 kDa read as a trimer

B1: C1q/TNF-related protein 3 (CTRP3), recombinant (natural protein, human, UniProt Q9BXJ4 23-246, looked up)
chain: QDEYMESPQTGGLPPDCSKCCHGDYSFRGYQGPPGPPGPPGIPGNHGNNGNNGATGHEGAKGEKGDKGDLGPRGERGQHGPKGEKGYPGIPPELQIAFMASLATHFSNQNSGIIFSSVETNIGNFFDVMTGRFGAPVSGVYFFTFSMMKHEDVEEVYVYLMHNGNTVFSMYSYEMKGKSDTSSNHAVLKLAKGDEVWLRMGNGALHGDHQRFSTFAGFLLFETK
notes: C1q/TNF-related protein 3 (CTRP3), human, recombinant; also called C1q/Tumor Necrosis Factor-Related Protein 3; recombinant human CTRP3; source: baculovirus expression system in insect H5 cells
B1 was tested, and the “stoichiometry N” value was 3.
